This is an account of results in publication PMC8849478.

In general, kon refers to the second-order rate constant of association. What is called Kd is the equilibrium constant for the complex coming apart. The low end stands for higher affinity, the high end for lower affinity.

Assay [1] has as its target human haptoglobin, mixture of phenotypes Hp2-1 and Hp2-2 (human) (UniProt P00738). Briefly: stopped-flow fluorescence spectrometry; Hp (0.25 μM, Hb tetramer binding basis) rapidly mixed with excess Hb/metHb at various concentrations; excitation 285 nm, emission 310 nm; monoexponential fit gives pseudo first order constants, linear regression against Hb/metHb concentration gives the bimolecular rate constant.

The target in assay [2] is human hemoglobin (human) (UniProt P69905). Briefly: SEC; tetramer to dimers; SEC-HPLC of samples at 1.25, 2.5, 5, 10 and 20 μM (heme basis) after incubation in 0.1 M PBS pH 7.4 at 4°C for one week; fraction of tetramers by deconvolution, Kd from the intercept of the linearised plot (Eq 3). A general note: SEC sorts molecules by how far they enter the pores of the column.
The target in assay [3] is human methemoglobin (human) (UniProt P69905). The assay is described as above.

Sequence of human methemoglobin, P69905 1-142; P68871 1-147 (complex; other documents disagree on this pair) (P69905 whole entry): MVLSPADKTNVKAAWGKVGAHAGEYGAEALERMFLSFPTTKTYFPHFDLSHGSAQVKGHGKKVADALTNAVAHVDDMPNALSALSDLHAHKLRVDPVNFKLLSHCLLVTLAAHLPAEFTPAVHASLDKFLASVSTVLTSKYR
Sequence of human methemoglobin, P69905 1-142; P68871 1-147 (complex; other documents disagree on this pair) (P68871 whole entry): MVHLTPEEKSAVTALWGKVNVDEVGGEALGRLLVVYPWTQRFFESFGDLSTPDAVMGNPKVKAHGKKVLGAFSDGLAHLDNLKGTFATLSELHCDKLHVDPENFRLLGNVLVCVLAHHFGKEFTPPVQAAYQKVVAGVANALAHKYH
Sequence of human hemoglobin, P69905 1-142; P68871 1-147 (complex; other documents disagree on this pair) (P69905 whole entry): as the sequence (P69905 whole entry) above
Sequence of human hemoglobin, P69905 1-142; P68871 1-147 (complex; other documents disagree on this pair) (P68871 whole entry): as the sequence (P68871 whole entry) above
Sequence of bovine methemoglobin (P01966 whole entry): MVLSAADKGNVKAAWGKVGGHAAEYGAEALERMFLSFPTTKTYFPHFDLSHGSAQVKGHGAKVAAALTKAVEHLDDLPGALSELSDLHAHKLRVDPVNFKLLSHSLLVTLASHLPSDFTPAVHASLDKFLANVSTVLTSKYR
Sequence of bovine methemoglobin (P02070 whole entry): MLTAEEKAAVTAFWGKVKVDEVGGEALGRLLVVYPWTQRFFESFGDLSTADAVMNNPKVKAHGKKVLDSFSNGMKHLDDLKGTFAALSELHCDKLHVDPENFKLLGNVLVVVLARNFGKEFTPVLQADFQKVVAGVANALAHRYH
Sequence of bovine hemoglobin (P01966 whole entry): as the sequence (P01966 whole entry) above
Sequence of bovine hemoglobin (P02070 whole entry): as the sequence (P02070 whole entry) above

As for “bovine hemoglobin (from UniProt P01966 1-142; P02070 1-145) (complex)”, in assay [1], the kon turned out to be 147000 M⁻¹ s⁻¹.

Regarding “bovine methemoglobin (from UniProt P01966 1-142; P02070 1-145) (complex)”, the kon in assay [1] was 140000 M⁻¹ s⁻¹.

Take “human hemoglobin, P69905 1-142; P68871 1-147 (complex; other documents disagree on this pair)”: the Kd in assay [2] was found to be 230 nM.

“human methemoglobin, P69905 1-142; P68871 1-147 (complex; other documents disagree on this pair)” came in with a Kd in assay [3] of 450 nM.
